Test results published in US20250155449A1.

Tests used:
[1] = target: biotinylated IgG from human serum (Rockland Immunochemicals) (human); assay: BLI, equilibrium KD, soluble sample on immobilized hIgG
[2] = target: biotinylated IgG from human serum (Rockland Immunochemicals) (human); assay: BLI, kinetic fit values (1:1 model), soluble sample on immobilized hIgG
[3] = target: biotinylated IgG from human serum (Rockland Immunochemicals) (human); assay: BLI (Octet), equilibrium titration of soluble analyte on biotinylated hIgG on streptavidin tips

Sequence of Ab+Inv HC27 (HP6017 with invertase fused to the C-terminus of the heavy chain by an AS(G4S)5 linker) (heavy): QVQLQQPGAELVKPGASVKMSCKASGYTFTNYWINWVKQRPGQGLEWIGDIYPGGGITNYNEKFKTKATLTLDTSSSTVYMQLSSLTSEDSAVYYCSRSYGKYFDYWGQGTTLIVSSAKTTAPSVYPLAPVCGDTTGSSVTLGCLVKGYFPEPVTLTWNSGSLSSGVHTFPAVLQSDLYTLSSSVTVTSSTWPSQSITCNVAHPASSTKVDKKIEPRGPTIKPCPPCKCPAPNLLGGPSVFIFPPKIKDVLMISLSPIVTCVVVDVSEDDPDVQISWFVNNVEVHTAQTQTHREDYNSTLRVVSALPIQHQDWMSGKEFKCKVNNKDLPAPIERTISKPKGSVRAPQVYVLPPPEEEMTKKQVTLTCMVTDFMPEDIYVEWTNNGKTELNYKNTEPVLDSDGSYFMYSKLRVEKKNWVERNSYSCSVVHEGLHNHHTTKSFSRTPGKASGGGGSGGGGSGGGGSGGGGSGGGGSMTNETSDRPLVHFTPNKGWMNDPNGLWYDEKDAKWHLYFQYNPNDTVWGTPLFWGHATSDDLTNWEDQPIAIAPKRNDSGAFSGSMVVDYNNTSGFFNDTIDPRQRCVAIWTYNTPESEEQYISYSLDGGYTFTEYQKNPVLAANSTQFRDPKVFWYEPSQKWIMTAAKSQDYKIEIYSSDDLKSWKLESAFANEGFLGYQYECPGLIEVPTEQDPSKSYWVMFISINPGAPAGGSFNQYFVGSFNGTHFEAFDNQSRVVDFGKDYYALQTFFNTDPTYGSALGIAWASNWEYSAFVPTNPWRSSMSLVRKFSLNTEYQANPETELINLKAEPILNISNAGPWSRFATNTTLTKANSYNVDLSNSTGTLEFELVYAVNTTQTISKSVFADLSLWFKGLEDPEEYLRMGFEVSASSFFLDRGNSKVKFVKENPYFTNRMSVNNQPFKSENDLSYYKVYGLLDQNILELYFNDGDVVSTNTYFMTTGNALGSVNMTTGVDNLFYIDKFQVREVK
Sequence of Ab+Inv HC27 (HP6017 with invertase fused to the C-terminus of the heavy chain by an AS(G4S)5 linker) (light): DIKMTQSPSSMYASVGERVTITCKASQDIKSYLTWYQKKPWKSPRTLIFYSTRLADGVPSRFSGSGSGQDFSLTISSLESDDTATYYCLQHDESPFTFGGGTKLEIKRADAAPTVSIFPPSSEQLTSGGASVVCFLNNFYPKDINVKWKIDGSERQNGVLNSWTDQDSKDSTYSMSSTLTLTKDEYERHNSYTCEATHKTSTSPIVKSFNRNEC
Sequence of Ab+Inv HC17 (HP6017 with invertase fused to the C-terminus of the heavy chain by an AS(G4S)3 linker) (heavy): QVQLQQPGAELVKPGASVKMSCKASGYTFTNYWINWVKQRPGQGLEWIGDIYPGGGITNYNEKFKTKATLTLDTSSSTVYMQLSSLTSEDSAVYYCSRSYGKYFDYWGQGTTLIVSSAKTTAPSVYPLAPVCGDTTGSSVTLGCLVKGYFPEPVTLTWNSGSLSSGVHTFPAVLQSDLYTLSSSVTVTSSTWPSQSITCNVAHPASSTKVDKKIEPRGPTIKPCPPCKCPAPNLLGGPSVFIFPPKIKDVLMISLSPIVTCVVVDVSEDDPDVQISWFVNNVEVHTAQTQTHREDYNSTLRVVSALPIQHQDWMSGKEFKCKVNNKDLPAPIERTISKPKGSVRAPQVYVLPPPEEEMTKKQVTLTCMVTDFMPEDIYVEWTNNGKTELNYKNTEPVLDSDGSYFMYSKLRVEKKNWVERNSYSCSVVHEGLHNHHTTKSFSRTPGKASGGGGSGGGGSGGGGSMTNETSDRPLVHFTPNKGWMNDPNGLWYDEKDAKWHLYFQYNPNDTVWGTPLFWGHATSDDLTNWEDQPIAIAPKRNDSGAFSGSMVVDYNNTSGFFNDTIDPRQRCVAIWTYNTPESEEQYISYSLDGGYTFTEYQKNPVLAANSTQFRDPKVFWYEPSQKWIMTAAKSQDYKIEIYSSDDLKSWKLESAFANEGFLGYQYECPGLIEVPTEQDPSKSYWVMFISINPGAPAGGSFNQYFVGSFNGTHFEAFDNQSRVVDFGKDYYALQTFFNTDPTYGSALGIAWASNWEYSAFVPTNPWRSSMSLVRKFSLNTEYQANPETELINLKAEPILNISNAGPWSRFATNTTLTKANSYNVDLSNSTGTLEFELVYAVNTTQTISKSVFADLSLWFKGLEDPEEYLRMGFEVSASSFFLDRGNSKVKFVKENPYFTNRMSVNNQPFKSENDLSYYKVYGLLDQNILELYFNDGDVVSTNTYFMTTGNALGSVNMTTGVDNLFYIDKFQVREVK
Sequence of recombinant antibody HP6017 (anti-human IgG, mouse IgG2a kappa) (heavy): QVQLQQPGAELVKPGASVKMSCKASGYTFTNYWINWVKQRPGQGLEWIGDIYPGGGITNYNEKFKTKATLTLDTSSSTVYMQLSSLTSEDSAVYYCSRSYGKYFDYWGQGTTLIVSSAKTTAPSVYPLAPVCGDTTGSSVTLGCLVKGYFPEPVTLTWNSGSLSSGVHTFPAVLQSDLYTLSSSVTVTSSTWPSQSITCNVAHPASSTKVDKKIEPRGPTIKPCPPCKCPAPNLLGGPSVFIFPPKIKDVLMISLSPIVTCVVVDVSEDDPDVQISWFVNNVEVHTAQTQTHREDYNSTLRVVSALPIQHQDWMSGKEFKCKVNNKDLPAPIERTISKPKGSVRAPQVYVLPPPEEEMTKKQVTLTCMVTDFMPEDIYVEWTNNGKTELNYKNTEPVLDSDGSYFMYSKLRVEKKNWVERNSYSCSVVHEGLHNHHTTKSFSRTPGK
Sequence of Ab+Inv LC15 (HP6017 with invertase fused to the C-terminus of the light chain by a (G4S)3 linker) (light): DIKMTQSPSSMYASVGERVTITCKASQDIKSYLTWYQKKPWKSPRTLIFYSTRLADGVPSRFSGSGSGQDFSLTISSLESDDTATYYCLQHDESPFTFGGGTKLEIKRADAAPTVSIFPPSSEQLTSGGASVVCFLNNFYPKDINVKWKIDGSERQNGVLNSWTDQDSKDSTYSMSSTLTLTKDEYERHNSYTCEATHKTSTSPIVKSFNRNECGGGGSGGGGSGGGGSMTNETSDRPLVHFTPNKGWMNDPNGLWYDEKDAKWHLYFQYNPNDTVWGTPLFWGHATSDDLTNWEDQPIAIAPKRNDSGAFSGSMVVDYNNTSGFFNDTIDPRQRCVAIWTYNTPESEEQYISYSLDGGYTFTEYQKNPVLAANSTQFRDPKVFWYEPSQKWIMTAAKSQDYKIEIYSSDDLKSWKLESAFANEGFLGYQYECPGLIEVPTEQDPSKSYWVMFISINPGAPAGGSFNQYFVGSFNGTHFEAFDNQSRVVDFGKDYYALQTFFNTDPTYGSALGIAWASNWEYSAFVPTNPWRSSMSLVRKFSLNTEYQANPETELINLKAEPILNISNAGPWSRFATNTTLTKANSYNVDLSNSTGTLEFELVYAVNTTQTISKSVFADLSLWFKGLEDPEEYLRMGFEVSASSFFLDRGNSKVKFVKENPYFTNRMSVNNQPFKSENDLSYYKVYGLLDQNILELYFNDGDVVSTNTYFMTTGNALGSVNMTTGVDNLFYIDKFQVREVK
Sequence of Ab+Inv LC25 (HP6017 with invertase fused to the C-terminus of the light chain by a (G4S)5 linker) (light): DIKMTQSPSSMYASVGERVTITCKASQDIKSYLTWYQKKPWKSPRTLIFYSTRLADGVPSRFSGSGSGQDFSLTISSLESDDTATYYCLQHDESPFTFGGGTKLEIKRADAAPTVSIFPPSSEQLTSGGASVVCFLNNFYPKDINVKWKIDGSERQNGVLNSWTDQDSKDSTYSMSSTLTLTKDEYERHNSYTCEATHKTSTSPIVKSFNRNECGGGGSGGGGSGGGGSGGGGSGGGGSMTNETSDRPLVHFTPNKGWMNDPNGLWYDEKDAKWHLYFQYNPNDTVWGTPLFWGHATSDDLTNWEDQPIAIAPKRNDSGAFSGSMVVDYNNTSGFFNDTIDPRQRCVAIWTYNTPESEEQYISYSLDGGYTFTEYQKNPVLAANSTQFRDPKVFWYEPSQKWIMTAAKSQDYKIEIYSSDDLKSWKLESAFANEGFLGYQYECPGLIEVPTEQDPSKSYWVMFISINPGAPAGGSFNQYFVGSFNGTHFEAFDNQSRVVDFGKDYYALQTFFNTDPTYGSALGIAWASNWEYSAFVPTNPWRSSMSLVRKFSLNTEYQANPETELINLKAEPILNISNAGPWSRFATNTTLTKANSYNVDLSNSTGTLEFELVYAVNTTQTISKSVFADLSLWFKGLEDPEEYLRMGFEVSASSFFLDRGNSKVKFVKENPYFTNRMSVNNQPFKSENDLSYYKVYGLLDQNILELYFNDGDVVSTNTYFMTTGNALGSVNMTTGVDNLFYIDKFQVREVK

Substance | Kd [1] | Kd [2] | koff [2] | kon [2] | EC50 (read off the curve) [3]
Ab+Inv HC27 (HP6017 with invertase fused to the C-terminus of the heavy chain by an AS(G4S)5 linker) | 25 nM | < 0.001 nM | < 1e-07 s⁻¹ | 450000 M⁻¹ s⁻¹ | 30 nM
Ab+Inv LC25 (HP6017 with invertase fused to the C-terminus of the light chain by a (G4S)5 linker) | 17 nM | < 0.001 nM | < 1e-07 s⁻¹ | 1.61e+06 M⁻¹ s⁻¹ | 
Ab+Inv LC15 (HP6017 with invertase fused to the C-terminus of the light chain by a (G4S)3 linker) | 16 nM | < 0.001 nM | < 1e-07 s⁻¹ | 1.46e+06 M⁻¹ s⁻¹ | 20 nM

Now from value to substance:

Kd [1] | Kd [2] | koff [2] | kon [2] | EC50 (read off the curve) [3] | Substance
21 nM | < 0.001 nM | < 1e-07 s⁻¹ | 430000 M⁻¹ s⁻¹ | 20 nM | Ab+Inv HC17 (HP6017 with invertase fused to the C-terminus of the heavy chain by an AS(G4S)3 linker)
18 nM | < 0.001 nM | < 1e-07 s⁻¹ | 490000 M⁻¹ s⁻¹ | 20 nM | recombinant antibody HP6017 (anti-human IgG, mouse IgG2a kappa)
